Data on 16 sequences can be found in the nanobody polyreactivity screen of Harvey et al. (2022).

A short description of this series: yeast display, Sf9 membrane polyspecificity reagent, FACS + sequencing; frameworks hold sequencing errors. The method, boiled down:
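In a synthetic yeast display library (Saccharomyces cerevisiae BJ5465), nanobody expression was induced with galactose for 36–48 hours. FACS gates were set low and high (top ~1%) using anti-HA fluorescence for expression and streptavidin fluorescence for binding of the Sf9 membrane reagent. Each polyreactivity label is drawn from the gate of origin.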
In the case of “QVQLVESGGGLVQAGGSLRLSCAASGSTLPANSMGWYRQAPGKERELVAAITITTDGSTYYADSVKGRFTISRDNAKNTVYLQMNSLKPEDTAVYYCAVARYRYHIRKMGYWGQGTQVTVSS”, the “polyreactivity (PSR sort gate)” value was “low polyreactivity”.

For the sequence “QVQLVESGGGLVQAGGSLRLSCAASGSTLPSNTMGWYRQAPGKERELVAAISRNGGSTYYADSVKGRFTISRDNAKNTVYLQMNSLKPEDTAVYYCNRVYRERYPYVLYGYWGQGTQVTVSS”, the “polyreactivity (PSR sort gate)” value is given as “high polyreactivity”.

Take “QVQLVESGGGLVQAGGSLRLSCAASGSTLPVNAMGWYRQAPGKERELVAAINRDGSTNYADSVKRPFTFSRDNAKNTVYLQMNSLKQEDTAVYYCAADGFGYPGKRYDYWGQGTQVTVSS”: the “polyreactivity (PSR sort gate)” value is on record as “low polyreactivity”.

Take “QVQLVESGGGLVQAGGSLRLSCAASGSTLQRYTMGLYRPAPGKERELDAAITQSGGSTFYADSVKGRFTISRDNAKNTVYLQMNSLKPEDTAVYYCAAKLTTGYYYGVPRDYWGQGTQVTVSS”: the “polyreactivity (PSR sort gate)” value is given as “high polyreactivity”.

In the case of “QVQLVESGGGLVQAGGSLRLSCAASGSTLQVYARGWYRQAPGKERELVAASSKSGGRTYYADSVKGRFTISRDNAKNTVYLQMNSLKPEDTAVYYCAADVGTAQSTYGYWGQGTQVTVSS”, the “polyreactivity (PSR sort gate)” value is “high polyreactivity”.

As to “QVQLVESGGGLVQAGGSLRLSCAASGSTLRAYAMGWSRQAPGKERELVAAINVSSGGTYYADSVKGRFTISRDNAKNTVYLQMNSLKPEDTAVYYCAARARWAGLRYTRYYYWGQGTQVTVSS”, the “polyreactivity (PSR sort gate)” value is on record as “high polyreactivity”.

“QVQLVESGGGLVQAGGSLRLSCAASGSTLRAYTMGWYRQAPGKERELVATITRRGGTTYYADSVKGRFTISRDNAKNTVYLQMNSLKPEDTAVYYCAAKWYSTHRYDYWGQGTQVTVSS”: the “polyreactivity (PSR sort gate)” value was “high polyreactivity”.

On to “QVQLVESGGGLVQAGGSLRLSCAASGSTLRRYAMGWYRQAPGKERDLVAAITSRGTDTYYADSVKGRFTISRDNAKNTVYLQMNSLKPEDTAVYYCAASWVAGGHYGYDYWGQGTQVTVSS”, for which the “polyreactivity (PSR sort gate)” value is on record as “high polyreactivity”.

As for “QVQLVESGGGLVQAGGSLRLSCAASGSTLRWNAMGWYRQAPGKERELVAAITYSGGSTYYADSVKGRFTISRDNAKNTVYLQMNSLKPEDTAVYYCAADSYRYRPGYGPVLYDYWGQGTQVTVSS”, the “polyreactivity (PSR sort gate)” value is listed as “high polyreactivity”.

For “QVQLVESGGGLVQAGGSLRLSCAASGSTLSDNAMGWYRQAPGKERELVASISWSGGTYYADSVKGRFTISRDNAKNTVYLQMNSLKPEDTAVYYCAAYIYYNYSRQYWYDYWGQGTQVTVSS”, the “polyreactivity (PSR sort gate)” value is reported as “low polyreactivity”.

“QVQLVESGGGLVQAGGSLRLSCAASGSTLSFKAMGWYRQAPGKERELVAGITYSGGSTYYADSVKGRFTISRDNAKNTVYLQMNSLKPEDTAVYYCNKASGVYYGHLDYWGQGTQVTVSS”: the “polyreactivity (PSR sort gate)” value is given as “low polyreactivity”.

“QVQLVESGGGLVQAGGSLRLSCAASGSTLSFNAMGWYRQAPGKERELVAGITYSGGSTYYADSVKGRFTISRDNAKNTVYLQMNILKPEDTAVYYCNKASGVYYGHLDYWGQGTQVTVSS”: the “polyreactivity (PSR sort gate)” value is “low polyreactivity”.

With “QVQLVESGGGLVQAGGSLRLSCAASGSTLSFNAMGWYRQAPGKERELVAGITYSGGSTYYADYVKGRFTISRDNAKNTVYLQMNSLKPEDTAVYYCNKASGVYYGHLDYWGQGTQVTVSS”, the “polyreactivity (PSR sort gate)” value is “low polyreactivity”.

Take “QVQLVESGGGLVQAGGSLRLSCAASGSTLSKNAMGWYRQAPGKERELVAAMTRRGGSTSYADSVKGRFTMSRDYAKNTVYLQMNSLKPEDTAVYYCNAVSKYDYGYWGQGTQVTVSS”: the “polyreactivity (PSR sort gate)” value is “high polyreactivity”.

As for “QVQLVESGGGLVQAGGSLRLSCAASGSTLSQNAMGWSRQAPGKEREFVADISGSGDSTYYADSVKGRITISRDNAKNTVYLQMNSLKPEDTAVYYCAAEELSHYEYWGKGTQVTVSS”, the “polyreactivity (PSR sort gate)” value is given as “low polyreactivity”.

As to “QVQLVESGGGLVQAGGSLRLSCAASGSTLSSNAMGWYRQAPGKVWELVAAISYRGGSTYYADSVKGRFTISRDNAKNTVYLQMNSLKPEDTAVYYCAAYLGPYVRYYYWGQGTQVTVSS”, the “polyreactivity (PSR sort gate)” value is “high polyreactivity”.
